Laboratory results as given in doi:10.1101/2025.03.20.644192.

Molecular target: Chicken CapZ complex, full length α/β (chicken) (UniProt P13127)
Assay: ITC

RavB, full length, untagged (RavB^WT) (natural protein)
Kd: 10.8 nM
